# Source: IntAct's records for PubMed 25461530
# B1: Dipeptidyl peptidase 4 (Homo sapiens), P27487 (parent)
# chain: MKTPWKVLLGLLGAAALVTIITVPVVLLNKGTDDATADSRKTYTLTDYLKNTYRLKLYSLRWISDHEYLYKQENNILVFNAEYGNSSVFLENSTFDEFGHSINDYSISPDGQFILLEYNYVKQWRHSYTASYDIYDLNKRQLITEERIPNNTQWVTWSPVGHKLAYVWNNDIYVKIEPNLPSYRITWTGKEDIIYNGITDWVYEEEVFSAYSALWWSPNGTFLAYAQFNDTEVPLIEYSFYSDESLQYPKTVRVPYPKAGAVNPTVKFFVVNTDSLSSVTNATSIQITAPASMLIGDHYLCDVTWATQERISLQWLRRIQNYSVMDICDYDESSGRWNCLVARQHIEMSTTGWVGRFRPSEPHFTLDGNSFYKIISNEEGYRHICYFQIDKKDCTFITKGTWEVIGIEALTSDYLYYISNEYKGMPGGRNLYKIQLSDYTKVTCLSCELNPERCQYYSVSFSKEAKYYQLRCSGPGLPLYTLHSSVNDKGLRVLEDNSALDKMLQNVQMPSKKLDFIILNETKFWYQMILPPHFDKSKKYPLLLDVYAGPCSQKADTVFRLNWATYLASTENIIVASFDGRGSGYQGDKIMHAINRRLGTFEVEDQIEAARQFSKMGFVDNKRIAIWGWSYGGYVTSMVLGSGSGVFKCGIAVAPVSRWEYYDSVYTERYMGLPTPEDNLDHYRNSTVMSRAENFKQVEYLLIHGTADDNVHFQQSAQISKALVDVGVDFQAMWYTDEDHGIASSTAHQHIYTHMSHFIKQCFSLP
# Variants of: B1
# Conditions: with spike_mers1 S
row,Variant,effect of a mutation on the interaction
1,Q344A,with no effect
2,L294D;I295D,disrupting interaction strength
3,K267E,disrupting interaction strength
4,K267A,disrupting interaction strength
5,R317A,decreasing interaction strength
6,R336A,decreasing interaction strength
7,L294A;I295A,disrupting interaction strength
